In article PMC10397247 one finds interaction score data, which are given here for 5 molecules.

Like-named read-outs stand apart in the source and are kept apart here.

What all share (test): two-hybrid library CCmax;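 further: natural log of median RNA to DNA barcode read ratio; higher means stronger binding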
One assay addresses T1, 4H342-AA.
T1 chain: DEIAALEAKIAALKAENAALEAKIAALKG
To be noted: mean of both orientations.

In the next assay the target is T2, 4H3844-AA.
T2 chain: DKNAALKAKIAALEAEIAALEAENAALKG
To be noted: mean of both orientations.

The target in a further assay is T3, 4H317-AA.
T3 chain: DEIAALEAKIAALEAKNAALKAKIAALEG
To be noted: mean of both orientations.

The target of another assay is T4, 4H678-AA.
T4 chain: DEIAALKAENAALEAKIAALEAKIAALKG
To be noted: mean of both orientations.

For another assay, the target named is T5, 4H566-AA.
T5 chain: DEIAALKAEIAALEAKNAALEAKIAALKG
The following applies: mean of both orientations.

The next assay concerns the target T6, N6-AA.
T6 chain: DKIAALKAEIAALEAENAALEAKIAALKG
The following applies: mean of both orientations.

The next assay deals with T7, 4H605-AA.
T7 chain: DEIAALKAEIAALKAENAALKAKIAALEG
To be noted: mean of both orientations.

The next assay deals with T8, 4H3655-AA.
T8 chain: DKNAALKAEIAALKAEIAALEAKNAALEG
The following applies: mean of both orientations.

The next assay deals with T9, 4H3427-AA.
T9 chain: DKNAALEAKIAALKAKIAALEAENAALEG
The following applies: mean of both orientations.

The target of another assay is T10, 4H906-AA.
T10 chain: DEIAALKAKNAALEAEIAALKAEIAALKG
To be noted: mean of both orientations.

A further assay has as its target T11, 4H717-AA.
T11 chain: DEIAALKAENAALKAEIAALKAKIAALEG
The following applies: mean of both orientations.

A further assay deals with T12, 4H3606-AA.
T12 chain: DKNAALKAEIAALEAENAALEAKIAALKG
To be noted: mean of both orientations.

The next assay has as its target T13, N5-AA.
T13 chain: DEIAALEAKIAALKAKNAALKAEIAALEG

A further assay addresses T14, 4H993-AA.
T14 chain: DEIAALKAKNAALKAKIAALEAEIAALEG
To be noted: mean of both orientations.

A further assay concerns the target T15, 4H454-AA.
T15 chain: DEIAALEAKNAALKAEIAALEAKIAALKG

Another assay has as its target T16, 4H3627-AA.
T16 chain: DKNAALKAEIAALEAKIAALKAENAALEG
To be noted: mean of both orientations.

The next assay has as its target T17, 4H3343-AA.
T17 chain: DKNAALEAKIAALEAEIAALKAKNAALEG
The following applies: mean of both orientations.

The next assay addresses T18, 4H2883-AA.
T18 chain: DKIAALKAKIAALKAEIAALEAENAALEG

The next assay addresses T19, 4H2944-AA.
T19 chain: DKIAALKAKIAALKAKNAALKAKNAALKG
The following applies: mean of both orientations.

The target in the next assay is T20, 4H3112-AA.
T20 chain: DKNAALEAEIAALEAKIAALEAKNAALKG
The following applies: mean of both orientations.

A further assay deals with T21, 4H881-AA.
T21 chain: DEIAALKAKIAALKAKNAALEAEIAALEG
To be noted: mean of both orientations.

In a further assay the target is T22, 4H429-AA.
T22 chain: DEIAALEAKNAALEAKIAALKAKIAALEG
The following applies: mean of both orientations.

The next assay concerns the target T23, 4H794-AA.
T23 chain: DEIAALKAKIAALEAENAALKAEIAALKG
To be noted: mean of both orientations.

The target in another assay is T24, 4H48-AA.
T24 chain: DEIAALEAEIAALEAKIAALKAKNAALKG

For the next assay, the target named is T25, 4H2949-AA.
T25 chain: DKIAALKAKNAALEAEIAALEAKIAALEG
The following applies: mean of both orientations.

In another assay the target is T26, 4H780-AA.
T26 chain: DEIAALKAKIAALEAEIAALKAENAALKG
The following applies: mean of both orientations.

The target of a further assay is T27, 4H2505-AA.
T27 chain: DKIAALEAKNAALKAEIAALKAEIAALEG
The following applies: mean of both orientations.

For the next assay, the target named is T28, 4H2642-AA.
T28 chain: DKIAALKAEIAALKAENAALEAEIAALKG
To be noted: mean of both orientations.

The next assay deals with T29, 4H1324-AA.
T29 chain: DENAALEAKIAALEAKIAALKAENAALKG

The next assay has as its target T30, 4H2277-AA.
T30 chain: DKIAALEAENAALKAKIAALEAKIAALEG
To be noted: mean of both orientations.

The target in a further assay is T31, 4H234-AA.
T31 chain: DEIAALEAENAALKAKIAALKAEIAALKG
The following applies: mean of both orientations.

The next assay deals with T32, 4H2466-AA.
T32 chain: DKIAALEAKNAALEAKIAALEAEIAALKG

Another assay has as its target T33, 4H2575-AA.
T33 chain: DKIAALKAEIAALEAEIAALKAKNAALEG
To be noted: mean of both orientations.

The target in a further assay is T34, 4H2754-AA.
T34 chain: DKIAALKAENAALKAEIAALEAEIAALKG
The following applies: mean of both orientations.

A further assay concerns the target T35, 4H2165-AA.
T35 chain: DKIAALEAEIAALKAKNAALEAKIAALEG
The following applies: mean of both orientations.

The target of the next assay is T36, 4H2837-AA.
T36 chain: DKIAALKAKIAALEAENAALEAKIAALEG
To be noted: mean of both orientations.

The target of a further assay is T37, 4H2151-AA.
T37 chain: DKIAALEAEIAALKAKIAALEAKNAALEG
To be noted: mean of both orientations.

The target of the next assay is T38, 4H1352-AA.
T38 chain: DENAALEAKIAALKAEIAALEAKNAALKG
The following applies: mean of both orientations.

The next assay concerns the target T39, 4H1552-AA.
T39 chain: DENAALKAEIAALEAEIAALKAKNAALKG
The following applies: mean of both orientations.

A further assay deals with T40, 4H335-AA.
T40 chain: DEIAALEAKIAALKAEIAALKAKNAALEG
The following applies: mean of both orientations.

For the next assay, the target named is T41, 4H2617-AA.
T41 chain: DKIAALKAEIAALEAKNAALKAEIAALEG
To be noted: mean of both orientations.

A further assay addresses T42, 4H2354-AA.
T42 chain: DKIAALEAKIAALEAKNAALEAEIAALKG
The following applies: mean of both orientations.

The target of another assay is T43, 4H3921-AA.
T43 chain: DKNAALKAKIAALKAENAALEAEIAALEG
The following applies: mean of both orientations.

The next assay has as its target T44, 4H2729-AA.
T44 chain: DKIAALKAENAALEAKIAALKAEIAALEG
To be noted: mean of both orientations.

For a further assay, the target named is T45, 4H1842-AA.
T45 chain: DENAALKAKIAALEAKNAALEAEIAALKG

The next assay concerns the target T46, 4H2393-AA.
T46 chain: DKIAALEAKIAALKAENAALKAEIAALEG
The following applies: mean of both orientations.

The target in another assay is T47, 4H2190-AA.
T47 chain: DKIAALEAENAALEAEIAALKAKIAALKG
The following applies: mean of both orientations.

Another assay addresses T48, 4H1401-AA.
T48 chain: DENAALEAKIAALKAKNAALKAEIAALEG
The following applies: mean of both orientations.

In the next assay the target is T49, 4H1867-AA.
T49 chain: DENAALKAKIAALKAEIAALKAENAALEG
The following applies: mean of both orientations.

The next assay deals with T50, 4H1636-AA.
T50 chain: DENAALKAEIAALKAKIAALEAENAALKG
To be noted: mean of both orientations.

For the next assay, the target named is T51, 4H2078-AA.
T51 chain: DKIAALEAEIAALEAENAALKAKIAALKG
The following applies: mean of both orientations.

Consider DKIAALKAKIAALKAEIAALEAENAALEG [4H2883-AA], for which the interaction score with 4H342-AA was -0.29; with 4H3844-AA, 0.741; with 4H317-AA, -0.269; with 4H678-AA, 0.155; with 4H566-AA, 0.102; with N6-AA, 1.03. Besides, the interaction score in the assay with 4H605-AA is -1.31; with 4H3655-AA, 0.159; in the assay with 4H3427-AA it was -0.335; in the assay with 4H906-AA it was -1.52; in the assay with 4H717-AA, -1.74; in the assay with 4H3606-AA, 0.716. Further, the interaction score is 0.696 with N5-AA (mean of both orientations); -0.35 with 4H993-AA; -0.344 with 4H454-AA (mean of both orientations); -0.102 with 4H3627-AA; -0.771 with 4H3343-AA; 1.92 with 4H2883-AA. Besides, the interaction score with 4H2944-AA was 0.034; with 4H3112-AA, 1.39; with 4H881-AA it was -0.297; with 4H429-AA, -0.571; with 4H794-AA, -1.54; with 4H48-AA (mean of both orientations), 2.1. Also, the interaction score with 4H2949-AA came out at 0.237.

For the molecule DEIAALEAKNAALKAEIAALEAKIAALKG [4H454-AA], the interaction score with 4H678-AA is 2.11; with 4H566-AA it was 0.133; with N6-AA, 1.89; in the assay with 4H605-AA it was -1.24; in the assay with 4H906-AA, 0.951; with 4H717-AA it was 0.898. For the same molecule, the interaction score was 0.301 with N5-AA (mean of both orientations); 1.82 with 4H993-AA; 1.45 with 4H454-AA; -1.48 with 4H780-AA; 0.451 with 4H881-AA; -0.535 with 4H794-AA. Further, the interaction score with 4H48-AA (mean of both orientations) is -0.839.

In the case of DENAALEAKIAALEAKIAALKAENAALKG [4H1324-AA], the interaction score with 4H2505-AA is -1.2; with 4H342-AA it was -1.05; with 4H2642-AA it was -0.934; with 4H3844-AA, 2.11; with 4H317-AA, -1.41; with 4H678-AA, -1.52. The interaction score with 4H566-AA was -1.31; with 4H1324-AA, 1.4; with 4H605-AA, -1.44; with 4H3655-AA it was -0.51; with 4H2277-AA, -1.35; with 4H234-AA it was -2.21. Also, the interaction score with 4H3427-AA was 0.0395; with 4H906-AA, -1.42; with 4H2466-AA, -1.2; in the assay with 4H717-AA, -1.26; with 4H3606-AA it was -1.02; in the assay with 4H993-AA it was 1.28. For the same molecule, the interaction score with 4H454-AA (mean of both orientations) is -0.814; with 4H3627-AA, 0.372; in the assay with 4H2575-AA, 0.676; in the assay with 4H780-AA, 0.567; with 4H3343-AA it was 0.278; with 4H2883-AA (mean of both orientations), 1.32. For the same molecule, the interaction score was -1.3 with 4H2754-AA; -1.47 with 4H2165-AA; -1.14 in the assay with 4H2837-AA; -1.01 with 4H2944-AA; 0.0224 in the assay with 4H3112-AA; -1.69 with 4H881-AA. For the same molecule, the interaction score in the assay with 4H429-AA was -1.18; with 4H2151-AA, -0.928; with 4H1352-AA, 0.674; with 4H794-AA, -1.34; with 4H1552-AA, 1.17; with 4H335-AA it was -0.376. Also, the interaction score in the assay with 4H48-AA (mean of both orientations) was 1.07; in the assay with 4H2617-AA it was -0.287; with 4H2949-AA, -1.16; with 4H2354-AA it was -1.59; with 4H3921-AA, -1.15; in the assay with 4H2729-AA it was -1.35. The interaction score is -1.92 in the assay with 4H1842-AA; -0.744 with 4H2393-AA; -1.14 with 4H2190-AA; -1.6 with 4H1401-AA; 0.462 in the assay with 4H1867-AA; -0.551 with 4H1636-AA. The molecule further showed an interaction score with 4H2078-AA of 1.78.

For DEIAALEAEIAALEAKIAALKAKNAALKG [4H48-AA], the interaction score in the assay with 4H678-AA is -0.779; with 4H566-AA, -0.519; in the assay with N6-AA it was 1.34; with 4H605-AA it was -1.62; with 4H906-AA, -1.25; with 4H717-AA, -1.37. Moreover, the interaction score with N5-AA (mean of both orientations) is 0.994; in the assay with 4H993-AA, 0.666; with 4H881-AA, 0.161; in the assay with 4H794-AA, -1.49; with 4H48-AA, 1.11.

Consider DEIAALEAKIAALKAKNAALKAEIAALEG [N5-AA], for which the interaction score with N6-AA was 2.28; with N5-AA it was -0.624.
